Key:
[1] = molecular target: T1, human neonatal Fc Receptor (FcRn) (human, UniProt P55899 24-297; P61769 21-119); assay: bio-layer interferometry (Octet QKe), His-tagged FcRn captured on anti-Penta-His biosensors, pH 6.0, antibody range 31.25-1.9 nM, R2 0.9869
T1 construct: not shown: histidine tag

[2] = molecular target: T2, recombinant human FcγRIIb (human, UniProt P31994 46-217, limits assumed); assay: bio-layer interferometry (Octet QKe); His-tagged receptor on anti-Penta-His biosensor, antibody in solution
T2 construct: Histidine-tagged recombinant receptor; not shown: histidine tag
T2 sequence (looked up): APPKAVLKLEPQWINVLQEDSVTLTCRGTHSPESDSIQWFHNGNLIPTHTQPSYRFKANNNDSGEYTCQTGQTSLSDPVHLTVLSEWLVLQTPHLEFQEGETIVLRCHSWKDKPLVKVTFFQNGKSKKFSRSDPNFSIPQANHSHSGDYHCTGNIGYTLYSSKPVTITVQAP

[3] = molecular target: T3, recombinant human FcγRIIa (human, UniProt P12318 36-218, limits assumed); assay: as above
T3 construct: Histidine-tagged recombinant receptor; not shown: histidine tag
T3 sequence (looked up): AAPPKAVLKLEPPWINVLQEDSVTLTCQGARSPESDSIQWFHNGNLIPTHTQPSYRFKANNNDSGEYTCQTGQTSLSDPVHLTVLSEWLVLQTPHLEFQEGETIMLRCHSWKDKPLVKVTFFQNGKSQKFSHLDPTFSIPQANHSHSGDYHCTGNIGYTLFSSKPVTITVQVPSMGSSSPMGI

recombinant human FcγRI = molecular target: T4, recombinant human FcγRI (human, UniProt P12314 16-288, limits assumed); assay: as above
T4 construct: Histidine-tagged recombinant receptor captured on anti-Penta-His biosensors; also called Fc-gamma receptor I; not shown: histidine tag

[4] = molecular target: T5, recombinant human FcγRIIIb (human, UniProt O75015 17-200); assay: as above
T5 construct: Histidine-tagged recombinant receptor; not shown: histidine tag

[5] = molecular target: T6, recombinant human FcγRIIIa (human, UniProt P08637 17-208); assay: as above
T6 construct: Histidine-tagged recombinant receptor; not shown: histidine tag

[6] = molecular target: T1, human neonatal Fc Receptor (FcRn); assay: bio-layer interferometry (Octet QKe), His-tagged FcRn captured on anti-Penta-His biosensors, pH 7.2, antibody range 500-15.6 nM, R2 0.9876
Experimental: (§1) Binding to recombinant human Fc receptors was measured by bio-layer interferometry using an Octet® QKe instrument. […] Curve fitting was performed using the instrument's analysis software. Binding to FcRn was performed with association and dissociation steps at pH 6.0 as well as pH 7.2.

[7] = molecular target: T1, human neonatal Fc Receptor (FcRn); assay: bio-layer interferometry (Octet QKe) at pH 7.2; His-tagged FcRn on anti-Penta-His biosensor, antibody in solution
Experimental: as §1

[8] = molecular target: T1, human neonatal Fc Receptor (FcRn); assay: bio-layer interferometry (Octet QKe) at pH 6.0; His-tagged FcRn on anti-Penta-His biosensor, antibody in solution
Experimental: as §1

[9] = molecular target: T1, human neonatal Fc Receptor (FcRn); assay: bio-layer interferometry (Octet QKe), His-tagged FcRn captured on anti-Penta-His biosensors, pH 7.2, antibody range 500-15.6 nM, R2 0.9876; row head Kdis(1/s)
Experimental: as §1

[10] = molecular target: T1, human neonatal Fc Receptor (FcRn); assay: bio-layer interferometry (Octet QKe), His-tagged FcRn captured on anti-Penta-His biosensors, pH 6.0, antibody range 31.25-1.9 nM, R2 0.9869; row head Kdis(1/s)
Experimental: as §1

[11] = molecular target: human KIT (wild-type KIT) (human, UniProt P10721 26-976); assay: cell-based or functional assay
Chain of human KIT (wild-type KIT) (P10721 other isoform, or with tags, fused parts or gaps limits assumed): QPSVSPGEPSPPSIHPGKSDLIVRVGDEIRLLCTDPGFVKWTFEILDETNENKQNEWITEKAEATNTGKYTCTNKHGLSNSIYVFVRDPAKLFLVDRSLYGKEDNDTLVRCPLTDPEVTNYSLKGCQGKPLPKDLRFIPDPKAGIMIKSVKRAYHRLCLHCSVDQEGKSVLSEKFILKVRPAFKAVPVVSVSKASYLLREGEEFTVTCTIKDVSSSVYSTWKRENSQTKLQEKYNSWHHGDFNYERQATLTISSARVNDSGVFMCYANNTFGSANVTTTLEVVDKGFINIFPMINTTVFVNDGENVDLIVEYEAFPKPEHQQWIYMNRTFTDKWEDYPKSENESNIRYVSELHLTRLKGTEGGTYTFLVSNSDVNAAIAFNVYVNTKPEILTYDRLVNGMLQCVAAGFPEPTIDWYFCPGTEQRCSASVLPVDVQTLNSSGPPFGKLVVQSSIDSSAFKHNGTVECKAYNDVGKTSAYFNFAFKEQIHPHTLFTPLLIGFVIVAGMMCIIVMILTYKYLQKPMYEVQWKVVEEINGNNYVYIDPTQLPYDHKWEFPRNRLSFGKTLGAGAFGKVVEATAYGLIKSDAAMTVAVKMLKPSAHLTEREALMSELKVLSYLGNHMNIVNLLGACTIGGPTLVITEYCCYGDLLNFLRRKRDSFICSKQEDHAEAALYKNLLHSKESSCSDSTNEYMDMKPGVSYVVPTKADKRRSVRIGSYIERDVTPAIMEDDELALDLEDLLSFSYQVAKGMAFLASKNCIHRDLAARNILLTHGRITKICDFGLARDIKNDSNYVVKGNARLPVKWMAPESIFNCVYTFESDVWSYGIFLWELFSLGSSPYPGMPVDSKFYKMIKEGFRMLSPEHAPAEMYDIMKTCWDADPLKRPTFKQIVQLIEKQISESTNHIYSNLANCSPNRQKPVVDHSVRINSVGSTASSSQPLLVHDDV

T1 sequence (P55899 24-297 limits assumed, form in doubt, chain 1 of 2): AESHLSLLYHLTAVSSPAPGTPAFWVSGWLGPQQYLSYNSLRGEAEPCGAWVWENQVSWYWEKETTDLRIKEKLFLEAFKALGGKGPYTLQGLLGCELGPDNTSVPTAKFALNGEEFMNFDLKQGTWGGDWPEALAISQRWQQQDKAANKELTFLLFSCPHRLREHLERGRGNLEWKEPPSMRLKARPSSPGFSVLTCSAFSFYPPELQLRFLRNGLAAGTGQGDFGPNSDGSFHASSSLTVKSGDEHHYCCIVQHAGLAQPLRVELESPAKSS
T1 sequence (P61769 21-119 limits assumed, form in doubt, chain 2 of 2): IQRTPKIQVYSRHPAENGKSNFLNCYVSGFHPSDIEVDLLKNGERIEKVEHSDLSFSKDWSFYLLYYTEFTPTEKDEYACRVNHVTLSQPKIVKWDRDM
T5 sequence (O75015 17-200 limits assumed): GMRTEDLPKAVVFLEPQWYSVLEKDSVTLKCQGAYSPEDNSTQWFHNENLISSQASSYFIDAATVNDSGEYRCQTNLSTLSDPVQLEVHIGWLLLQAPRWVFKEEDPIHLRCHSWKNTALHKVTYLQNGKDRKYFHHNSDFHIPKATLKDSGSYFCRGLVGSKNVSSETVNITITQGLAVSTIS
T4 sequence (P12314 16-288 limits assumed): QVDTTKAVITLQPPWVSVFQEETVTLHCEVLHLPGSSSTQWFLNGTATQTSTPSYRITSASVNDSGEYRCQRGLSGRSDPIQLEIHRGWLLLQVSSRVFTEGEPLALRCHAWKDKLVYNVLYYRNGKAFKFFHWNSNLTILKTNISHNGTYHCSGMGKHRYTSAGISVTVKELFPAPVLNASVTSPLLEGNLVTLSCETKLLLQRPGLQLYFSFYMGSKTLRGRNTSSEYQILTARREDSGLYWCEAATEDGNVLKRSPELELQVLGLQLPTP
T6 sequence (P08637 17-208 limits assumed): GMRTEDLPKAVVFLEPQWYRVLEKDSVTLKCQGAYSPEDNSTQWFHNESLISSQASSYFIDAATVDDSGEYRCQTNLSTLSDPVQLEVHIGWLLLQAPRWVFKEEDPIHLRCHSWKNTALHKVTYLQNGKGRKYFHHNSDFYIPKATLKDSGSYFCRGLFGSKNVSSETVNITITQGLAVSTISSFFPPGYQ

B1: mAb1 (antibody)
heavy: QVQLVQSGAEVKKPGASVKLSCKASGYTFTDYYINWVRQAPGKGLEWIARIYPGSGNTYYNEKFKGRATLTADKSTSTAYMQLSSLRSEDTAVYFCARGVYYFDYWGQGTTVTVSSASTKGPSVFPLAPSSKSTSGGTAALGCLVKDYFPEPVTVSWNSGALTSGVHTFPAVLQSSGLYSLSSVVTVPSSSLGTQTYICNVNHKPSNTKVDKKVEPKSCDKTHTCPPCPAPEAQGGPSVFLFPPKPKDTLYITREPEVTCVVVDVSHEDPEVKFNWYVDGVEVHNAKTKPREEQYNSTYRVVSVLTVLHQDWLNGKEYKCQVSNKALPAPIEKTISKAKGQPREPQVYTLPPSRDELTKNQVSLTCLVKGFYPSDIAVEWESNGQPENNYKTTPPVLDSDGSFFLYSKLTVDKSRWQQGNVFSCSVMHEALHNHYTQKSLSLSPG
light: DIVMTQSPSSLSASVGDRVTITCKASQNVRTNVAWYQQKPGKAPKALIYSASYRYSGVPDRFTGSGSGTDFTLTISSLQPEDFADYFCQQYNSYPRTFGGGTKVEIKRTVAAPSVFIFPPSDEQLKSGTASVVCLLNNFYPREAKVQWKVDNALQSGNSQESVTEQDSKDSTYSLSSTLTLSKADYEKHKVYACEVTHQGLSSPVTKSFNRGEC
notes: Expressed in CHO cells; also called anti-KIT antibody mAb1; Fc mutated anti-KIT antibody
With B1 the Kd [1] was 0.383 nM, the kon [1] was 2e+06 M⁻¹ s⁻¹ and the binding result [2] was “no binding (tested: 500 nM)”. B1: no binding (tested: 500 nM) [3]; no binding (tested: 500 nM) (recombinant human FcγRI); no binding (tested: 500 nM) [4]. For the same binder, the binding result [5] was “no binding (tested: 500 nM)”, the kon [6] was 1.05e+06 M⁻¹ s⁻¹ and the Kd [7] was 77.1 nM. The Kd [8] was 0.38 nM, the koff [9] was 0.0807 s⁻¹ and the koff [10] was 0.000765 s⁻¹. For the same binder, the “mean IC50, inhibition of SCF-dependent M-07e cell proliferation” value [11] was 1.11 nM.
